Source: patent publication US20210079115A1 (Janssen / Centocor, published 2021)

Target: full length human PSMA on cells (LNCaP, C4-2B, LNCaP AR, 22RV1 prostate tumor cells; human tissue) (human, UniProt Q04609 1-750)
Assay: cell-based or functional assay

Chain of full length human PSMA on cells (LNCaP, C4-2B, LNCaP AR, 22RV1 prostate tumor cells; human tissue) (Q04609 whole entry): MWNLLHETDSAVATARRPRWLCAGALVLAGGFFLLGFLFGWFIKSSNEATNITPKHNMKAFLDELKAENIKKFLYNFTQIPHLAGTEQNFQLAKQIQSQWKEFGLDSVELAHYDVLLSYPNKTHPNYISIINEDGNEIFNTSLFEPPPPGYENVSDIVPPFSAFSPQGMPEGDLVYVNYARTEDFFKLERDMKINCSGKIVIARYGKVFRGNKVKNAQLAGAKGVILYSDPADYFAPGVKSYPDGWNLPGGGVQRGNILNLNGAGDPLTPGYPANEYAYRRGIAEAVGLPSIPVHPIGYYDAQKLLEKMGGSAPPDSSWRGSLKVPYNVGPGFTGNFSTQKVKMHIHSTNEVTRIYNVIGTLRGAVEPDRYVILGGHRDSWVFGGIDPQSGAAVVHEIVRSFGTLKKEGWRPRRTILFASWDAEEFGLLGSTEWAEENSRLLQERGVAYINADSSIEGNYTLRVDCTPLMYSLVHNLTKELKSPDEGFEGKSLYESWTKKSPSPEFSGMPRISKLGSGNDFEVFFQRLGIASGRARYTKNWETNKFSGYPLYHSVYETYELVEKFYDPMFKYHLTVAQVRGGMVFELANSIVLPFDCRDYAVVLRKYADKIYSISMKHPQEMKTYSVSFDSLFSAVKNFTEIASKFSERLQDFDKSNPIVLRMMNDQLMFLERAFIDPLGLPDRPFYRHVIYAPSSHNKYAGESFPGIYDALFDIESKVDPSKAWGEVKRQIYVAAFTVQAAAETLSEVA

B1: PS3B27 PSMA×CD3 bispecific antibody (PSMB127 × CD3B219) (bispecific antibody, human IgG4 S228P, kappa, lambda, F234A L235A)
heavy 1: not shown
light 1: not shown
heavy 2: EVQLVESGGGLVQPGGSLRLSCAASGFTFNTYAMNWVRQAPGKGLEWVARIRSKYNNYATYYAASVKGRFTISRDDSKNSLYLQMNSLKTEDTAVYYCARHGNFGNSYVSWFAYWGQGTLVTVSSASTKGPSVFPLAPCSRSTSESTAALGCLVKDYFPEPVTVSWNSGALTSGVHTFPAVLQSSGLYSLSSVVTVPSSSLGTKTYTCNVDHKPSNTKVDKRVESKYGPPCPPCPAPEAAGGPSVFLFPPKPKDTLMISRTPEVTCVVVDVSQEDPEVQFNWYVDGVEVHNAKTKPREEQFNSTYRVVSVLTVLHQDWLNGKEYKCKVSNKGLPSSIEKTISKAKGQPREPQVYTLPPSQEEMTKNQVSLTCLVKGFYPSDIAVEWESNGQPENNYKTTPPVLDSDGSFLLYSKLTVDKSRWQEGNVFSCSVMHEALHNHYTQKSLSLSLGK
light 2: QTVVTQEPSLTVSPGGTVTLTCRSSTGAVTTSNYANWVQQKPGQAPRGLIGGTNKRAPGTPARFSGSLLGGKAALTLSGVQPEDEAEYYCALWYSNLWVFGGGTKLTVLGQPKAAPSVTLFPPSSEELQANKATLVCLISDFYPGAVTVAWKADSSPVKAGVETTTPSKQSNNKYAASSYLSLTPEQWKSHRSYSCQVTHEGSTVEKTVAPTECS
T cell activation (CD25 expression) median EC50, C4-2B cells co-cultured with donor T cells, 48 hours: 0.06 nM
T cell dependent cytotoxicity median EC50, C4-2B cells, E:T 3:1, 72 hours: 0.08 nM
